Measurements taken from paper PMC12114846 (2025).

Biological target: IL-15 (Homo sapiens, UniProt P40933)
Sequence (P40933 49-162): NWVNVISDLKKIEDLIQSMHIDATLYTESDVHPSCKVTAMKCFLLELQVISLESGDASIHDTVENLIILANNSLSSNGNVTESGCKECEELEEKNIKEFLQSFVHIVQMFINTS

B1: rILR-Fc (IL-15Rα-Sushi-Fc) Sushi (protein)
chain: TRGITCPPPMSVEHADIWVKSYSLYSRERYICNSGFKRKAGTSSLTECVLNKATNVAHWTTPSLKCIRDPA
modifications: Fc fusion
- Kd: 240 pM
